Results on seven molecules are retold here after US20210316007A1 (DUKE UNIVERSITY, published 2021).

Where a chain is given by its changes, count along the chain named.

Experiment [1] addresses T1, mouse serum albumin (mouse, UniProt P07724 25-608).
T1 construct: also called MSA; mouse albumin
Description: ITC, MSA titrated into CP-DOX micelles, PBS pH 7.4, 37 °C. (In ITC the heat of successive injections is recorded.)

Experiment [2] has as its target T2, human serum albumin (human, UniProt P02768 25-609).
T2 construct: also called HSA; human albumin
Description: ITC, HSA titrated into ELP, PBS pH 7.4, 37 °C; Example 2 ITC series (FIG. 3A), naked ELP control; weak µM best-fit KD that the text calls no specific affinity.

Experiment [3] concerns the target T2, human serum albumin. Description: ITC, HSA titrated into ELP, PBS pH 7.4, 37 °C; Example 2 ITC series (FIG. 3A), naked ELP control.
Experiment [4] addresses T1, mouse serum albumin. Description: ITC (Nano ITC), albumin titrated into construct, PBS, 37 °C; PTX-example ITC series (Table 10), CP without ABD and without drug; µM fit.
Experiment [5] addresses T1, mouse serum albumin. Kind of experiment: ITC, MSA titrated into ELP, PBS pH 7.4, 37 °C; Example 2 ITC series (FIG. 4A), naked ELP control; fitted N with an error larger than the value.
Experiment [6] deals with T1, mouse serum albumin. Kind of experiment: ITC, MSA titrated into ELP, PBS pH 7.4, 37 °C; Example 2 ITC series (FIG. 4A), naked ELP control; weak µM best-fit KD that the text calls no specific affinity.
Experiment [7] addresses T1, mouse serum albumin. Kind of experiment: ITC, MSA titrated into ABDN-ELP, PBS pH 7.4, 37 °C.
Description: (§1) The experiments were performed in phosphate buffered saline (pH 7.4) at 37° C.
For experiment [8], the target named is T1, mouse serum albumin. Kind of experiment: ITC (Nano ITC), albumin titrated into construct, PBS, 37 °C.
Experiment [9] has as its target T2, human serum albumin. The experiment is described as above.
The target in experiment [10] is T2, human serum albumin. Description: ITC, HSA titrated into ABDN-ELP, PBS pH 7.4, 37 °C.
Description: as §1
For experiment [11], the target named is T1, mouse serum albumin. Kind of experiment: ITC, MSA titrated into ABDH-ELP, PBS pH 7.4, 37 °C.
Description: as §1
For experiment [12], the target named is T1, mouse serum albumin. Kind of experiment: ITC, MSA titrated into ABDH-CP-DOX micelles, PBS pH 7.4, 37 °C.
Description: as §1
In experiment [13] the target is T1, mouse serum albumin. Kind of experiment: ITC, MSA titrated into ABDN-CP-DOX micelles, PBS pH 7.4, 37 °C.
Description: as §1
Experiment [14] addresses T1, mouse serum albumin. Kind of experiment: ITC (Nano ITC), albumin titrated into micelles, PBS, 37 °C.
Description: (§2) For PTX conjugates, ITC was conducted using a Nano ITC system (TA Instruments, Utah, USA). […] For background correction, PBS (in the cell) was titrated with albumin (in the syringe) at the same concentrations and conditions. Background was subtracted from the final curves and the binding and thermodynamic parameters binding constant (KD), number of binding sites (n), and enthalpy (ΔH)—were computed by non-linear fitting to an independent-binding site model using TA Instruments NanoAnalyze software.
For experiment [15], the target named is T2, human serum albumin. Described as above.
Description: as §2

T1 sequence (P07724 25-608 limits assumed): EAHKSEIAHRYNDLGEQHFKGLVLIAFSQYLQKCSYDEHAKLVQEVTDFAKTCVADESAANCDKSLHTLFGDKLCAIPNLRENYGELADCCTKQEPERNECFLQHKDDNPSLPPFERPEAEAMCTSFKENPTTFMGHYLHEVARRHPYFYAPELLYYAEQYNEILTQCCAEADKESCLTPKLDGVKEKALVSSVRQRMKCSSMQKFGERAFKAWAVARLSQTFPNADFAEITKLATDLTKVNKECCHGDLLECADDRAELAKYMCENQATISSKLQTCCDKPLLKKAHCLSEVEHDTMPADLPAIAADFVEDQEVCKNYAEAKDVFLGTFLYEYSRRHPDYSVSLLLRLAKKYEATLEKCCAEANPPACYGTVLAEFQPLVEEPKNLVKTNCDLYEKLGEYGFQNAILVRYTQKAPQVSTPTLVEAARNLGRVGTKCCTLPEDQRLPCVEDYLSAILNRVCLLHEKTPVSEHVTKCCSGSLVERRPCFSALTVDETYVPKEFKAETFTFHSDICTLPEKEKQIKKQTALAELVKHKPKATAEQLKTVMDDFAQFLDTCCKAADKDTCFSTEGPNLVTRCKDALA

Turning to “CP-DOX micelles (doxorubicin-conjugated chimeric polypeptide without ABD)”, in the experiment with mouse serum albumin [1], the Kd worked out at 91.9 µM and the binding stoichiometry N came out at 0.0386.

Turning to “ELP (naked elastin-like polypeptide with no ABD at its N-terminus)”, the values for the Kd with human serum albumin [2], in the experiment with mouse serum albumin [4] and in the experiment with mouse serum albumin [6] were 69 µM, 3.5 µM and 71.4 µM, respectively. Further, the binding stoichiometry N with human serum albumin [3] came out at 0.75; with mouse serum albumin [5], 0.152.

B1: ABDN-ELP (albumin binding domain N fused to the N-terminus of ELP) (designed binder)
chain: LAEAKVLANRELDKYGVSDYYKNLINNAKTVEGVKALIDEILAALPVPGAGVPGAGVPGAGVPGAGVPGAGVPGAGVPGAGVPGAGVPGAGVPGAGVPGAGVPGAGVPGAGVPGAGVPGAGVPGAGVPGAGVPGAGVPGAGVPGAGVPGAGVPGAGVPGAGVPGAGVPGAGVPGAGVPGAGVPGAGVPGAGVPGAGVPGAGVPGAGVPGAGVPGAGVPGAGVPGAGVPGAGVPGAGVPGAGVPGAGVPGAGVPGAGVPGAGVPGAGVPGAGVPGAGVPGAGVPGAGVPGAGVPGAGVPGAGVPGAGVPGAGVPGAGVPGAGVPGAGVPGAGVPGAGVPGAGVPGAGVPGAGVPGAGVPGAGVPGAGVPGAGVPGAGVPGAGVPGAGVPGAGVPGAGVPGAGVPGAGVPGAGVPGAGVPGAGVPGAGVPGAGVPGAGVPGAGVPGAGVPGAGVPGAGVPGAGVPGAGVPGAGVPGAGVPGAGVPGAGVPGAGVPGAGVPGAGVPGAGVPGAGVPGAGVPGAGVPGAGVPGAGVPGAGVPGAGVPGAGVPGAGVPGAGVPGAGVPGAGVPGAGVPGAGVPGAGVPGAGVPGAGVPGAGVPGAGVPGAGVPGAGVPGAGVPGAGVPGAGVPGAGVPGAGVPGAGVPGAGVPGAGVPGAGVPGAGVPGAGVPGAGVPGAGVPGAGVPGAGVPGAGVPGAGVPGAGVPGAGVPGAGVPGAGVPGAGVPGAGVPGAGVPGAGVPGAGVPGAGVPGAGVPGAGVPGAGVPGAGVPGAGVPGAGCGGCGGCGGCGGCGGCGGCGGCGG
notes: Unconjugated monomer, 68.5 kDa by SDS-PAGE; also called ABDN-CP; ABD-CP
Regarding B1, the equilibrium dissociation constant (Kd) is 66.4 nM with mouse serum albumin [7], 16.3 nM in the experiment with mouse serum albumin [8], 6.47 nM with human serum albumin [9] and 48.4 nM with human serum albumin [10].

B2: ABDH-ELP (albumin binding domain H, engineered variant of ABDN, fused to the N-terminus of ELP) (designed binder)
chain: LAEAKVLANRELDKYGVSDFYKRLINKAKTVEGVEALKLHILAALPVPGAGVPGAGVPGAGVPGAGVPGAGVPGAGVPGAGVPGAGVPGAGVPGAGVPGAGVPGAGVPGAGVPGAGVPGAGVPGAGVPGAGVPGAGVPGAGVPGAGVPGAGVPGAGVPGAGVPGAGVPGAGVPGAGVPGAGVPGAGVPGAGVPGAGVPGAGVPGAGVPGAGVPGAGVPGAGVPGAGVPGAGVPGAGVPGAGVPGAGVPGAGVPGAGVPGAGVPGAGVPGAGVPGAGVPGAGVPGAGVPGAGVPGAGVPGAGVPGAGVPGAGVPGAGVPGAGVPGAGVPGAGVPGAGVPGAGVPGAGVPGAGVPGAGVPGAGVPGAGVPGAGVPGAGVPGAGVPGAGVPGAGVPGAGVPGAGVPGAGVPGAGVPGAGVPGAGVPGAGVPGAGVPGAGVPGAGVPGAGVPGAGVPGAGVPGAGVPGAGVPGAGVPGAGVPGAGVPGAGVPGAGVPGAGVPGAGVPGAGVPGAGVPGAGVPGAGVPGAGVPGAGVPGAGVPGAGVPGAGVPGAGVPGAGVPGAGVPGAGVPGAGVPGAGVPGAGVPGAGVPGAGVPGAGVPGAGVPGAGVPGAGVPGAGVPGAGVPGAGVPGAGVPGAGVPGAGVPGAGVPGAGVPGAGVPGAGVPGAGVPGAGVPGAGVPGAGVPGAGVPGAGVPGAGVPGAGVPGAGVPGAGVPGAGVPGAGVPGAGVPGAGVPGAGVPGAGVPGAGVPGAGVPGAGVPGAGCGGCGGCGGCGGCGGCGGCGGCGG
notes: Unconjugated monomer, 68.6 kDa by SDS-PAGE; also called ABDH-CP
For the molecule B2, in the experiment with mouse serum albumin [11], the Kd is 5.19 nM.

B3: ABDH-CP-DOX micelles (doxorubicin-conjugated ABDH-chimeric polypeptide) (designed binder)
chain: B2 chain
notes: Self-assembled micelle; aggregates at 37 °C without albumin
B3 yielded a Kd with mouse serum albumin [12] of 66.1 nM.

B4: ABDN-CP-DOX micelles (doxorubicin-conjugated ABDN-chimeric polypeptide) (designed binder)
chain: B2 chain with F20Y, R23N, K27N, E35K, K38I, L39D, H40E
notes: Self-assembled micelle; also called ABD-CP-DOX
With B4, the Kd with mouse serum albumin [13] stood at 318 nM.

B5: ABD-CP-PTX micelles (paclitaxel-conjugated ABD-chimeric polypeptide) (designed binder)
chain: B2 chain with F20Y, R23N, K27N, E35K, K38I, L39D, H40E
notes: Self-assembled micelle; also called ABDN-CP-PTX
As for B5, the Kd in the experiment with mouse serum albumin [14] was 4.37 nM; in the experiment with human serum albumin [15], 5.58 nM.

Usually Kd stands for the equilibrium constant for the complex coming apart. Read a high Kd as a looser complex.
